{"source": "paper PMC4333404", "about": "“Bcl2 inhibits recruitment of Mre11 complex to DNA double-strand breaks in response to high-linear energy transfer radiation”", "binders": {"B1": {"name": "TP423/TP424 3' overhanging duplex (dsDNA)", "DNA 1": "CTGCAGGGTTTTTGTTCCAGTCTGTAGCACTGTGTAAGACAGGCCAGATC", "DNA 2": "CACAGTGCTACAGACTGGAACAAAAACCCTGCAGTACTCTACTCATCTC"}}, "biological_target": "T1, Mre11 (UniProt P49959 1-708)", "T1 sequence": "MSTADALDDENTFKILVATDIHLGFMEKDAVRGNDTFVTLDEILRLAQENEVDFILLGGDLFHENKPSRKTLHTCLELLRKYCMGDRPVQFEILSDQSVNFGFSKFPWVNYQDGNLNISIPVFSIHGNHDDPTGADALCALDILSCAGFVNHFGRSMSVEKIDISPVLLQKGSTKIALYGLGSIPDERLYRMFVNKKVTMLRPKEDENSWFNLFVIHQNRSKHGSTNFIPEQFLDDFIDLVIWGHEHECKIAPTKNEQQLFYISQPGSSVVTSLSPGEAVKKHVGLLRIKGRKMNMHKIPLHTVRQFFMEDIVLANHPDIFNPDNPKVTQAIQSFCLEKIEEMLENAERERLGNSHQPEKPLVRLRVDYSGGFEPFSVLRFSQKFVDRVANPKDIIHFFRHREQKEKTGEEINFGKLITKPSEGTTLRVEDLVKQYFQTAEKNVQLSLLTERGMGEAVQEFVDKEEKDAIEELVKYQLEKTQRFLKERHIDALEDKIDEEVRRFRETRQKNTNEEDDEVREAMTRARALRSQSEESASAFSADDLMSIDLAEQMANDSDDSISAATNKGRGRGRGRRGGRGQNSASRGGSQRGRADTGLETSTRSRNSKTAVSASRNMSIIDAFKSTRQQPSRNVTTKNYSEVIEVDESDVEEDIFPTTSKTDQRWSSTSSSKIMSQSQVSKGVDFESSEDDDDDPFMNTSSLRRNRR", "assay": "EMSA; increasing Mre11; 1 mM Mg acetate; no Bcl2; EMSA: 25 mM MOPS pH 7.0, 60 mM KCl, 0.2% Tween, 2 mM DTT, 1 mM Mg(CH3COO)2, 37 C 15 min; 10 pM DNA, 10 nM Mre11; 5% native PAGE in TBE at 4 C", "details": "protein: recombinant; tags: Flag; chain copies: 2; label: 5'-32P on TP423; 34 bp duplex (S3[1-34] with S4[1-34]); 3' overhangs 16 nt (TP423) and 15 nt (TP424)"}
{"binder": "B1", "values": [{"measurement": "binding result", "result": "binds"}]}
